What was measured:
[1] = target: full length MMP-1 (human); assay: enzyme activity of pre-formed complexes against synthetic substrates; 10 nM [35S]TIMP-3 incubated with an equimolar concentration of metalloproteinase for 1 h at 37 °C; complex formation and stability over 24 h checked by activity
[2] = target: ADAMTS-5 (of the inhibition assays) (UniProt Q9UNA0); assay: enzyme inhibition kinetics (fluorogenic peptide substrates); apparent Ki; enzyme pre-incubated with TIMP-3 (0.5-100 nM) 1 h at 37 °C, equilibrium rate of substrate hydrolysis; TNC buffer (50 mM Tris-HCl pH 7.5, 150 mM NaCl, 10 mM CaCl2, 0.05% Brij-35, 0.02% NaN3), 37 °C; tight-binding equation

Sequence of full length MMP-1 (human) (P03956 100-469): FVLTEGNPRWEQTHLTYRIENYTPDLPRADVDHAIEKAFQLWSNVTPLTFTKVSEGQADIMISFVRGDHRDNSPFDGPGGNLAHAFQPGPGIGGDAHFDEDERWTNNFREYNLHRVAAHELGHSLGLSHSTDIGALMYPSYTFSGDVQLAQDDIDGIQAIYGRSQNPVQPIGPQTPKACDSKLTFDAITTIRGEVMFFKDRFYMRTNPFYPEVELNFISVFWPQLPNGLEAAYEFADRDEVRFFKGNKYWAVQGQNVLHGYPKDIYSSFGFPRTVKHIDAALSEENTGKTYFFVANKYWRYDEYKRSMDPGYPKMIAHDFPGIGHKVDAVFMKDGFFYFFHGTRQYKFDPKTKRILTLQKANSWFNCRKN

B1: FLAG-tagged TIMP-3 (natural protein)
chain: CTCSPSHPQDAFCNSDIVIRAKVVGKKLVKEGPFGTLVYTIKQMKMYRGFTKMPHVQYIHTEASESLCGLKLEVNKYQYLLTGRVYDGKMYTGLCNFVERWDQLTLSQRKGLNYRYHLGCNCKIKSCYYLPCFVTSKNECLWTDMLSNFGYPGYQSKHYACIRQKGGYCSWYRGWAPPDKSIINATDP
stoichiometry N [1]: 1 | Ki [2]: 1.91 nM

Reference: publication PMC7374751
